Source: publication PMC9604545

Columns and labels:
[1] = target: human legumain, activated asparaginyl-specific endopeptidase (AEP) (human) (UniProt Q99538); assay: SEC; legumain incubated with hCE-K75A at a 1:4 molar ratio in 50 mM citric acid pH 4.0, 100 mM NaCl for 1 h at 37 °C, till complete RCL hydrolysis; Superdex 75 or S200 10/300 GL in 20 mM citric acid pH 4.0, 50 mM NaCl; peak fractions analysed by SDS-PAGE
[2] = target: human legumain, activated asparaginyl-specific endopeptidase (AEP) (human) (UniProt Q99538); assay: enzyme inhibition kinetics (Ki from initial velocities, Morrison equation); hCE-K75A at 1.5 nM to 1.6 µM mixed with 50 µM AAN-AMC in 20 mM citric acid pH 5.5, 50 mM NaCl, 0.05% Tween-20; reaction started with 2 nM legumain; 10 min at 37 °C

UniProt Q99538, sequence (Q99538 18-323): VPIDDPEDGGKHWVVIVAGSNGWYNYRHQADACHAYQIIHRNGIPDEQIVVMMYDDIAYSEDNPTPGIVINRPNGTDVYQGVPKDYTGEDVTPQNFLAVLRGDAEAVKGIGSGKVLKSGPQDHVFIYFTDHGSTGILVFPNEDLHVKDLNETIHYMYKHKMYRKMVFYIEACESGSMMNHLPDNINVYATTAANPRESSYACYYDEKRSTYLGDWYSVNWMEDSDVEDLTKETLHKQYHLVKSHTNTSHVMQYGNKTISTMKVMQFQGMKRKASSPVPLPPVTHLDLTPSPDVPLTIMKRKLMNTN

molar ratio of enzyme:inhibitor in the complex peak (enzyme:inhibitor) [1]	Ki [2] [nM]	Substance
1		human cystatin M/E-K75A mutant, cleaved by legumain after P1-Asn39 on the reactive center loop (complex)
	19.8	human cystatin M/E-K75A mutant, intact (natural protein)
